# Legend:
# [1] = Anti-coagulant activity of human RNIP (preliminary studies); type: biochemical
# [2] = test system: galactosamine-sensitized mice; type: in vivo; details: CAP18 40 μg IP alone, no galactosamine, no Re-LPS
# Text: Galactosamine sensitizes mice to the lethal effects of LPS by a factor 1000 or more. CAP18 and LPS were mixed and injected IP into sensitized mice. CAP18 can neutralize the lethal effects of LPS in this model of endotoxemia (see Table 8).
# [3] = test system: human mononuclear cells; test: LPS-induced tissue factor by human mononuclear cells; type: cell-based; details: for Δ Units (%): LPS alone 100
# Protocol: Human mononuclear cells were separated from citrated peripheral blood by centrifugation over Sodium-metrizoate-Ficoll (lymphocyte Separation Medium, Japan Antibody Institute, Gumma). The resulting mixed mononuclear cell suspension was washed 3 times with RPMI 1640 media. Cell suspension (1×10^6 /ml) was stimulated with LPS for 16 to 18 hr.
# Veronal buffered saline (VBS) was added to the cell pellet, lysed by 3 cycles of freeze/thaw and sonicated for 10 sec with a hand-held sonicator microbe (Handy Sonic, model UR-20P, Tomy Seiko LTD, Tokyo). Tissue factor activity was tested in modified unactivated partial thromboplastin time (7). One tenth ml of cell lysate (1×10^6 /ml) was preincubated with mouse plasma at 37° C. for 3 min. Then 0.1 ml of 25 mM-CaCl2 which contains phospholipid was added to the mixture and clotting time was measured using a fibrometer (Bio Quest Division, Becton Dickinson, Cokeysville, USA). A standard curve obtained from serial two-fold dilutions of rabbit brain thromboplastic (Simplastin, Ono Pharmaceutical Co.) was used to transpose tissue factor activity into arbitrary tissue factor units (1 μg/ml) suspension of rabbit brain was assigned a value of 1,000 units).
# The mean tissue factor units+standard error was determined from three to four samples. Student's t test for unpair data was used to determine the statistically significant differences. A two-tailed P value of <0.05 was considered significant.
# S. minnesota SmoothLPS (2 μg/ml) was preincubated with equal volume of
# each LPSbinding protein (28HA) at 37° C. for 45 minutes, and the
# mixture was added to the cells and cultured for 16 hours.
# [4] = test system: rough mutant strain of Proteus mirabilis; details: cited from earlier work
# [5] = test system: encapsulated E. coli; details: cited from earlier work
# [6] = test system: wild-type smooth Proteus mirabilis; details: cited from earlier work
# [7] = first experiment, LPS 0.1 μg/ml
# [8] = second experiment, LPS 0.1 μg/ml
molecule,measurement,setting,value
"human RNIP: human RNIP polypeptide comprising amino acids 134 to 170 of SEQ ID NO:2, Merrifield solid phase synthesis (LLGDFFRKSKEKIGKEFKRIVQRIKDFLRNLVPRTES)",anti-coagulant activity,[1],lacks significant anti-coagulant activity
"CAP18: cationic protein obtained from rabbit granulocytes, calculated molecular weight 16.6 kD, SEQ ID NO:4 (protein) METHKHGPSLAWWSLLLLLLGLLMPPAIAQDLTYREAVLRAVDAFNQQSSEANLYRLLSMDPQQLEDAKPYTPQPVSFTVKETECPRTTWKLPEQCDFKEDGLVKRCVGTVTRYQAWDSFDIRCNRAQESPEPTGLRKRLRKFRNKIKEKLKKIGQKIQGLLPKLAPRTDY",Lethality (%) groups of 10 mice,[2],0%
same,Inhibition (%),[3]; [7],30%
same,"Tissue Factor, figure in parentheses (relative to unstimulated = 1.0)","[3]; first experiment, LPS 0.1 μg/ml, LPS alone 16.6",9.9
same,Δ Units (%),[3]; [7],70%
same,Δ Units,"[3]; first experiment, LPS 0.1 μg/ml, LPS alone 17118",12001
same,Tissue Factor,"[3]; first experiment, LPS 0.1 μg/ml, LPS alone 18214 ± 4192, RNIP 2 HA units, CAP-18 1 HA unit",13097 ± 1946 Units × 10^3 /3.6 × 10^4 cells
same,Inhibition (%),[3]; [8],35%
same,"Tissue Factor, figure in parentheses (relative to unstimulated = 1.0)","[3]; second experiment, LPS 0.1 μg/ml, LPS alone 14.7",9.9
same,Δ Units (%),[3]; [8],65%
same,Δ Units,"[3]; second experiment, LPS 0.1 μg/ml, LPS alone 6726",4366
same,Tissue Factor,"[3]; second experiment, LPS 0.1 μg/ml, LPS alone 7218 ± 264, HA units HP-1 4, HP-2 2, RNIP 2, CAP-18 1",4858 ± 1963 Units × 10^3 /3.6 × 10^4 cells
same,"Tissue Factor, figure in parentheses (relative to unstimulated = 1.0)","[3]; second experiment, no LPS",1.2
same,Δ Units,"[3]; second experiment, no LPS",235
same,Tissue Factor,"[3]; second experiment, no LPS, unstimulated 492 ± 75",583 ± 178 Units × 10^3 /3.6 × 10^4 cells
"BPI55: holoprotein of bactericidal permeability increasing protein (BPI) (protein, UniProt P17213 32-487, looked up) Bactericidal …: VNPGVVVRISQKGLDYASQQGTAALQKELKRIKIPDYSDSFKIKHLGKGHYSFYSMDIREFQLPSSQISMVPNVGLKFSISNANIKISGKWKAQKRFLKMSGNFDLSIEGMSISADLKLGSNPTSGKPTITCSSCSSHINSVHVHISKSKVGWLIQLFHKKIESALRNKMNSQVCEKVTNSVSSELQPYFQTLPVMTKIDSVAGINYGLVAPPATTAETLDVQMKGEFYSENHHNPPPFAPPVMEFPAAHDRMVYLGLSDYFFNTAGLVYQEAGVLKMTLRDDMIPKESKFRLTTKFFGTFLPEVAKKFPNMKIQIHVSASTPPHLSVQPTGLTFYPAVDVQAFAVLPNSSLASLFLIGMHTTGSMEVSAESNRLVGELKLDRLLLELKHSNIGPFPVELLQDIMNYIVPILVLPRVNEKLQKGFPLPTPARVQLYNVVLQPHQNFLLFGADVVYK",growth inhibition,[4],inhibited the growth
same,"growth inhibitory activity, reduction over control",[5],about 100 fold
same,growth inhibition,[6],only the rBPI23 inhibited growth
